Laboratory results from the Human Domainome abundance scans (Beltran et al. 2025).
± gives the uncertainty stated by the source.

B1: Homeobox protein cut-like 1, residues 548 to 629; numbered along this chain, P39880 (parent)
chain: GEEMDTAEIARQVKEQLIKHNIGQRIFGHYVLGLSQGSVSEILARPKPWNKLTVRGKEPFHKMKQFLSDEQNILALRSIQGR

Variants of: B1
Test: abundance fitness (aPCA) (normalised: wild type 0, dead -1); higher = more abundant; growth selection in yeast, the domain comes from the species named
Conditions: Homo sapiens

**Q.** Which abundance fitness does the source give for GEEMDTAEIARQVKEQLIKHNIGQRIFGHYVLGLSQGSVSEILARPKPWNKLTVRGKEPFHKMKQFLSDEQNILPLRSIQGR here?
**A.** Its abundance fitness is -0.314 ± 0.047.

**Q.** With GEEMDTAEIARQVKEQLIKHNIGQRIFGHYVLGLSQGSVSEILARPKPWNKLTVRGKEPFHKMKQFLSDEQNILMLRSIQGR as the variant, how does the abundance fitness read?
**A.** The abundance fitness was -0.039 ± 0.037.

**Q.** With GEEMDTAEIARQVKEQLIKHNIGQRIFGHYVLGLSQGSVSEILARPKPWNKLTVRGKEPFHKMKQFLSDEQNILLLRSIQGR as the variant, how does the abundance fitness read?
**A.** Its abundance fitness is -0.061 ± 0.032.

**Q.** For GEEMDTAEIARQVKEQLIKHNIGQRIFGHYVLGLSQGSVSEILARPKPWNKLTVRGKEPFHKMKQFLSDEQNILILRSIQGR, which abundance fitness is on record?
**A.** The abundance fitness was -0.146 ± 0.059.

**Q.** With GEEMDTAEIARQVKEQLIKHNIGQRIFGHYVLGLSQGSVSEILARPKPWNKLTVRGKEPFHKMKQFLSDEQNILYLRSIQGR as the variant, how does the abundance fitness read?
**A.** The abundance fitness was -0.027 ± 0.05.

**Q.** Which abundance fitness does the source give for GEEMDTAEIARQVKEQLIKHNIGQRIFGHYVLGLSQGSVSEILARPKPWNKLTVRGKEPFHKMKQFLSDEQNILRLRSIQGR here?
**A.** The abundance fitness was 0.05 ± 0.026.

**Q.** For GEEMDTAEIARQVKEQLIKHNIGQRIFGHYVLGLSQGSVSEILARPKPWNKLTVRGKEPFHKMKQFLSDEQNILFLRSIQGR, which abundance fitness is on record?
**A.** Its abundance fitness is -0.066 ± 0.061.

**Q.** For GEEMDTAEIARQVKEQLIKHNIGQRIFGHYVLGLSQGSVSEILARPKPWNKLTVRGKEPFHKMKQFLSDEQNILWLRSIQGR, which abundance fitness is on record?
**A.** Its abundance fitness is 0.009 ± 0.033.

**Q.** With GEEMDTAEIARQVKEQLIKHNIGQRIFGHYVLGLSQGSVSEILARPKPWNKLTVRGKEPFHKMKQFLSDEQNILNLRSIQGR as the variant, how does the abundance fitness read?
**A.** Its abundance fitness is 0.187 ± 0.061.

**Q.** With GEEMDTAEIARQVKEQLIKHNIGQRIFGHYVLGLSQGSVSEILARPKPWNKLTVRGKEPFHKMKQFLSDEQNILSLRSIQGR as the variant, how does the abundance fitness read?
**A.** The abundance fitness was 0.041 ± 0.031.

**Q.** With GEEMDTAEIARQVKEQLIKHNIGQRIFGHYVLGLSQGSVSEILARPKPWNKLTVRGKEPFHKMKQFLSDEQNILQLRSIQGR as the variant, how does the abundance fitness read?
**A.** Its abundance fitness is 0.038 ± 0.047.

**Q.** Which abundance fitness does the source give for GEEMDTAEIARQVKEQLIKHNIGQRIFGHYVLGLSQGSVSEILARPKPWNKLTVRGKEPFHKMKQFLSDEQNILKLRSIQGR here?
**A.** Its abundance fitness is 0.095 ± 0.04.

**Q.** Which abundance fitness does the source give for GEEMDTAEIARQVKEQLIKHNIGQRIFGHYVLGLSQGSVSEILARPKPWNKLTVRGKEPFHKMKQFLSDEQNILVLRSIQGR here?
**A.** The abundance fitness was -0.127 ± 0.033.

**Q.** For GEEMDTAEIARQVKEQLIKHNIGQRIFGHYVLGLSQGSVSEILARPKPWNKLTVRGKEPFHKMKQFLSDEQNILTLRSIQGR, which abundance fitness is on record?
**A.** The abundance fitness was 0.012 ± 0.037.

**Q.** For GEEMDTAEIARQVKEQLIKHNIGQRIFGHYVLGLSQGSVSEILARPKPWNKLTVRGKEPFHKMKQFLSDEQNILALDSIQGR, which abundance fitness is on record?
**A.** The abundance fitness was -0.292 ± 0.057.

**Q.** With GEEMDTAEIARQVKEQLIKHNIGQRIFGHYVLGLSQGSVSEILARPKPWNKLTVRGKEPFHKMKQFLSDEQNILALASIQGR as the variant, how does the abundance fitness read?
**A.** Its abundance fitness is 0.049 ± 0.03.

**Q.** For GEEMDTAEIARQVKEQLIKHNIGQRIFGHYVLGLSQGSVSEILARPKPWNKLTVRGKEPFHKMKQFLSDEQNILALESIQGR, which abundance fitness is on record?
**A.** Its abundance fitness is -0.005 ± 0.035.

**Q.** With GEEMDTAEIARQVKEQLIKHNIGQRIFGHYVLGLSQGSVSEILARPKPWNKLTVRGKEPFHKMKQFLSDEQNILALFSIQGR as the variant, how does the abundance fitness read?
**A.** The abundance fitness was -0.511 ± 0.07.

**Q.** With GEEMDTAEIARQVKEQLIKHNIGQRIFGHYVLGLSQGSVSEILARPKPWNKLTVRGKEPFHKMKQFLSDEQNILALCSIQGR as the variant, how does the abundance fitness read?
**A.** The abundance fitness was -0.032 ± 0.046.

**Q.** For GEEMDTAEIARQVKEQLIKHNIGQRIFGHYVLGLSQGSVSEILARPKPWNKLTVRGKEPFHKMKQFLSDEQNILAGRSIQGR, which abundance fitness is on record?
**A.** The abundance fitness was -0.806 ± 0.04.

**Q.** For GEEMDTAEIARQVKEQLIKHNIGQRIFGHYVLGLSQGSVSEILARPKPWNKLTVRGKEPFHKMKQFLSDEQNILADRSIQGR, which abundance fitness is on record?
**A.** The abundance fitness was -0.716 ± 0.092.

**Q.** Which abundance fitness does the source give for GEEMDTAEIARQVKEQLIKHNIGQRIFGHYVLGLSQGSVSEILARPKPWNKLTVRGKEPFHKMKQFLSDEQNILAERSIQGR here?
**A.** The abundance fitness was -0.758 ± 0.063.

**Q.** Which abundance fitness does the source give for GEEMDTAEIARQVKEQLIKHNIGQRIFGHYVLGLSQGSVSEILARPKPWNKLTVRGKEPFHKMKQFLSDEQNILAARSIQGR here?
**A.** Its abundance fitness is -0.638 ± 0.052.

**Q.** With GEEMDTAEIARQVKEQLIKHNIGQRIFGHYVLGLSQGSVSEILARPKPWNKLTVRGKEPFHKMKQFLSDEQNILATRSIQGR as the variant, how does the abundance fitness read?
**A.** Its abundance fitness is -0.752 ± 0.086.

**Q.** For GEEMDTAEIARQVKEQLIKHNIGQRIFGHYVLGLSQGSVSEILARPKPWNKLTVRGKEPFHKMKQFLSDEQNILASRSIQGR, which abundance fitness is on record?
**A.** Its abundance fitness is -0.697 ± 0.056.

**Q.** With GEEMDTAEIARQVKEQLIKHNIGQRIFGHYVLGLSQGSVSEILARPKPWNKLTVRGKEPFHKMKQFLSDEQNILARRSIQGR as the variant, how does the abundance fitness read?
**A.** The abundance fitness was -0.945 ± 0.057.

**Q.** For GEEMDTAEIARQVKEQLIKHNIGQRIFGHYVLGLSQGSVSEILARPKPWNKLTVRGKEPFHKMKQFLSDEQNILAQRSIQGR, which abundance fitness is on record?
**A.** Its abundance fitness is -0.6 ± 0.086.

**Q.** For GEEMDTAEIARQVKEQLIKHNIGQRIFGHYVLGLSQGSVSEILARPKPWNKLTVRGKEPFHKMKQFLSDEQNILAMRSIQGR, which abundance fitness is on record?
**A.** The abundance fitness was -0.461 ± 0.054.

**Q.** For GEEMDTAEIARQVKEQLIKHNIGQRIFGHYVLGLSQGSVSEILARPKPWNKLTVRGKEPFHKMKQFLSDEQNILAVRSIQGR, which abundance fitness is on record?
**A.** The abundance fitness was -0.357 ± 0.035.

**Q.** With GEEMDTAEIARQVKEQLIKHNIGQRIFGHYVLGLSQGSVSEILARPKPWNKLTVRGKEPFHKMKQFLSDEQNILACRSIQGR as the variant, how does the abundance fitness read?
**A.** Its abundance fitness is -0.484 ± 0.061.

**Q.** With GEEMDTAEIARQVKEQLIKHNIGQRIFGHYVLGLSQGSVSEILARPKPWNKLTVRGKEPFHKMKQFLSDEQNILANRSIQGR as the variant, how does the abundance fitness read?
**A.** The abundance fitness was -0.856 ± 0.16.

**Q.** For GEEMDTAEIARQVKEQLIKHNIGQRIFGHYVLGLSQGSVSEILARPKPWNKLTVRGKEPFHKMKQFLSDEQNILAIRSIQGR, which abundance fitness is on record?
**A.** Its abundance fitness is -0.291 ± 0.066.

**Q.** Which abundance fitness does the source give for GEEMDTAEIARQVKEQLIKHNIGQRIFGHYVLGLSQGSVSEILARPKPWNKLTVRGKEPFHKMKQFLSDEQNILAPRSIQGR here?
**A.** Its abundance fitness is -0.586 ± 0.12.

**Q.** Which abundance fitness does the source give for GEEMDTAEIARQVKEQLIKHNIGQRIFGHYVLGLSQGSVSEILARPKPWNKLTVRGKEPFHKMKQFLSDEQNILAKRSIQGR here?
**A.** Its abundance fitness is -0.861 ± 0.12.
